# Key:
# MS2 coat protein [1] = test: apparent KD of MS2 coat protein, switch ON state; designed switch direction (-1 OFF switch, 1 ON switch): -1; higher = weaker reporter binding; conditions: FMN input: 0 or 200 uM; Eterna round: R93 (includes R88 designs)
# Summary of the method: (§1)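 Values are apparent KD, taken as the median for each design of fits to normalised binding curves from individual clusters. The designed RNA switches were transcribed on-chip from Illumina sequencing clusters and exposed to SNAP-549-labelled MS2 coat protein at twofold increasing amounts from 0.7 or 1.5 nM to 3 µM. Titration used 100 mM Tris-HCl pH 7.5, 80 mM KCl and 4 mM MgCl2, without or with constant ligand.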
# MS2 coat protein [2] = test: apparent KD of MS2 coat protein, switch OFF state (with FMN for OFF switches, without FMN for ON switches); designed switch direction (-1 OFF switch, 1 ON switch): -1; higher = weaker reporter binding; conditions: FMN input: 0 or 200 uM; Eterna round: R93 (includes R88 designs)
# Summary of the method: as §1
Sequence,apparent KD of MS2 coat protein (MS2 coat protein [1]) [nM],apparent KD of MS2 coat protein (MS2 coat protein [2]) [nM]
AAAAAGUCAGGAUAUACGUACAUGUCGAAAGACGUGAAGGGACAUGAGGAUCACCCAUGUAGAAGGGACAAGAA [Mat - Exclusion 2 - JL mod - D78],99.6,91.8
AAAAAGUCAGGAUAUAUCAAAGCCUAUGAAAGUGGGAAAGGGUAGAAGGGACAUGAGGAUCACCCAUGUAAAAA [Banishment 10 - Jieux - Exclusion 4],62.3,38.5
AAAAAGUCAGGAUAUCGGAAAAAAAAAAAAAAAAGGAGAAACGAGAAGGGACAUGAGGAUCACCCAUGUAAAAA [No Frills],117,44
AAAAAGUCAGGAUAUCGGAAAAAAAAAAUAAAAAAAAAAAACGAGAAGGGACAUGAGGAUCACCCAUGUAUGAC [Mat - Exclusion 4 - Mayanna - D112],37.4,41.3
AAAAAGUCAGGAUAUGCAUGAGCAAAAAAAAAAAAGCUCAUGCAGAAGGGACAUGAGGAUCACCCAUGUAAAAA [Ex 4 May 10],70.2,48.6
AAAAAGUCAGGAUAUGGCAAAGGUCACGAAAGUGACAAAGGCUAGAAGGGACAUGAGGAUCACCCAUGUAAAAA [Fiskers Exclusion 4 D3],53.4,35.3
AAAAAGUCAGGAUAUGUCAAAAGUCACAAAAGUGACAAAAGACAGAAGGGACAUGAGGAUCACCCAUGUAAAAA [Mod of Eli],53.1,46.1
AAAAAGUGAGGAUAUACAUGAGGAUCACCCAUGUAAAAGGUCGCGGGAGGGAGGGACGGUAGAAGGCGCAAAAA [Excls3-VII],15.7,22.2
AAAAAGUGAGGAUAUACAUGAGGAUCACCCAUGUGAAAUCGGAAAAAAAAGGAAAAAAGUAGAAGGCACAAAAA [Mat - Mod of Eli],17.1,19.3
AAAAAGUGAGGAUAUACGAGGAGAAACAACAAACAAACAAAACAUGAGGAUCACCCAUGUAGAAGGCACAAAAA [Ex 2 sub 3],22.4,28.6
AAAAAGUGAGGAUAUGAAAAUAAAAAAAAAAAAAAAAUAAAUCAGAAGGCACAUGAGGAUCACCCAUGUAAAAA [JR_Exc004_Sub1201],29.8,38
AAAAAGUGAGGAUAUGCGAAGGCGUCUGAUAGACGAGGCUAGCAGAAGGCACAUGAGGAUCACCCAUGUGGGAA [Mat - Mod of Nando 64% 3],53.8,98.5
AAAAAGUGAGGAUAUGCGCUGUCAAGUAGACACGAGCAGUCGUAGAAGGCACAUGAGGAUCACCCAUGUUCAAA [EX4 Malc#22],25.4,16
AAAAAGUGAGGAUAUGCGCUGUCAAGUAGACACGAGCAGUCGUAGAAGGCACAUGAGGAUCACCCAUGUUUAAA [EX4 Malc#23],28.5,19.4
AAAAAGUGAGGAUAUGUACGAAAAAAUAAAAAAAUAAAAGUACAGAAGGCACAUGAGGAUCACCCAUGUGAAAA [EX4 397: Minimal 10],27.4,22.9
AAAAAGUGAGGAUAUUCGGAAGGGAAAGCGCAAACCCAACCGAAGAAGGCACAUGAGGAUCACCCAUGUGGAAA [Ecls4-III 65% - Early + late G segment 2],32.1,26.8
AAAAAGUUAGGAUAUACAUGAGGAUCACCCAUGUACACAUAUGGAGAAUAUGGUAGUAGUAGAAGGGACAAAAA [EX2 Malc#15],27.1,31.1
AAAAAGUUAGGAUAUACAUGAGGAUCACCCAUGUGCACGUAUGGAGAAUAUGGUGGUGGUAGAAGGGACAAAAA [EX2 Malc#19],43.2,65.5
AAAAAUCGAGGAUAUACAUGAGGAUCACCCAUGUCAGAAAAUGACUACACAAAAGAAAGUAGAAGGCGAUAAAG [Mat - Exclusion 3 - Mayanna mod - D131],32,64.1
AAAAAUCGAGGAUAUACAUGAGGAUCACCCAUGUGGGACCAAGAAAACACAAAAGAAAGUAGAAGGCGAUAAAA [Ex 3 May 23],21.9,76.4
AAAAAUCUAGGAUAUACAUGAGGAUCACCCAUGUAAGAAAAUGAUUACACAAAAGAAAGUAGAAGGAGAUAAAA [Ex 3 May 19],17.4,18.4
AAAAAUGCAGGAUAUACAUGAGGAUCACCCAUGUUAGACCUGAAAAAAGGGAAAGAAAGUAGAAGGGCAUAAAA [Ex 3 May 30],12.7,11.2
AAAAAUGCAGGAUAUACGAACAUGUCGAAAGACGUGAAGGGACAUGAGGAUCACCCAUGUAGAAGGGUAAAGAA [Mat - Exclusion 2 - JL mod - D74],264,62.5
AAAAAUGGAGGAUAUACAUGAGGAUCACCCAUGUGUAACUAUACUAAACACAAAAAAAGUAGAAGGCCAAAAAA [Gilly Gone Silly 8 - Jieux - Exclusion 3],32.7,50
AAAAAUGGAGGAUAUACAUGAGGAUCACCCAUGUGUAACUAUACUAAGCGCUCCUCAGGUAGAAGGCCAAAAAA [Gilly Gone Silly 15 - Jieux - Exclusion 3],70.9,48
AAAAAUUGAGGAUAUACGAACAUGUCAAAAGACGUGAAGGGACAUGAGGAUCACCCAUGUAGAAGGCGAAAAAA [JL Loop Breaker 2],41.3,19.7
AAAAAUUGAGGAUAUACGUACAUGUCAAAAGACGUGAAGGGACAUGAGGAUCACCCAUGUAGAAGGCGAAAAAA [JL Neck Breaker 12],38.8,13.6
AAAACACAUGAGGAUCACCCAUGUGAGGAUAUGCUAUGGAAAUAAAAAAUAAAACAUAGCAGAAGGCACAAAAA [Mat - Exclusion 1 - Eli mod - D40],23.9,39
AAAACGGCAGGAUAUACGAUUGGGAACUAGACCGAGGAACCACAUGAGGAUCACCCAUGUAGAAGGGCCAAAAA [Ex2 Malc#15],24.2,96.1
AAAACGUGAGGAUAUACUAAAAUAAAAAAUUAUGUUAAAAAACAUGAGGAUCACCCAUGUAGAAGGCACAAAAA [AJ 3],29.8,28.6

# Source: the supplement of paper PMC9170038
